Entries after “also recorded” stand apart in the source; their conditions may differ.
Key:
[1] = Thioflavin T assay; assay type: physicochemical; details: 200 μM peptide, 25 μM ThT, 37° C., excitation 450 nm
Description: Appropriate self-assembling peptides (alternatively referred to as folding peptides as in a single folding structure) will form a structure which can be identified by thioflavin T (Tht) binding. Fluorescence emission assay of Thioflavin T binding is commonly employed to detect amyloid fibrils. Upon binding to amyloid fibrils, ThT gives a strong fluorescence signal at approximately 482-485 nm when excited at 450 nm (Xue et al. (2017) Royal. Soc. Open Sci. 4:160696, 'Thioflavin T as an amyloid dye: fibril quantification, optimal concentration and effect on aggregation).
Such peptides were tested for ability to self-assemble to provide a β-sheet supramolecular structure and nickase activity. Ability to provide a β-sheet supramolecular structure was determined by thioflavin T fluorescence binding (Xue et al. (2017) Royal Soc. Open Sci. 4:160696). Nickase activity was investigated by means of a molecular beacon assay combined with a gel plasmid cleavage assay.
Thioflavin T (ThT) was mixed with the peptides in reaction buffer solution. Peptides were diluted to 200 μM (from a stock solution of 4.4 mM in DMSO) using a reaction buffer solution (the same buffer as used for the initial molecular beacon assays as set out below). […] The emission signal at 485 nm was measured every 5 minutes using an excitation wavelength of 450 nm. […]

[2] = system: plasmid DNA (pBR322); test: Gel plasmid cleavage assay; assay type: biochemical
Description: For this reason a further gel plasmid cleavage assay was employed to look for cleavage. Such a gel cleavage assay can differentiate between plasmid that is intact (no cleavage), nicked (ssDNA cleavage) and linearised (dsDNA cleavage) as the three plasmid species will migrate differently on an agarose gel. Intact plasmids have a supercoiled structure and therefore can migrate easily through an agarose gel whereas a ssDNA cleavage on the plasmid will relax this supercoiled structure. This produces a relaxed circle/nicked structure that migrates more slowly through the pores. The dsDNA cleavage of a plasmid produces a linearised plasmid. The linear structure migrates faster than a relaxed circular structure although not as fast as the supercoiled structure.
To optimize the assay, plasmid DNA (pBR322) was mixed with increasing concentrations of the peptide bL or bN, in the presence of Zn^2 + ions. […] The percentage of nicked species increases with greater peptide concentration for both bL and bN. […] An increasing proportion of the plasmid DNA is also observed in the wells of the gel. This DNA can be binding to the peptide causing a complex that is unable to migrate into the gel.

[3] = Observation of peptide aggregation / precipitation; assay type: physicochemical

## LELDLHL [bD]
[1]
  Thioflavin T emission signal at 485 nm (amyloid-like fibrils): high emission signal was measured instantly; also recorded: higher propensity to produce a highly stable amyloid beta sheet structure; also recorded: indicative of production of amyloid β-sheet structure
[2]
  cleavage of plasmid: some cleavage
  percentage of cleavage versus peptide concentration: increase with peptide concentration
[3]
  aggregation / precipitation of peptide: least propensity to aggregate and to precipitate

From US20260009008A1, “SYNTHETIC GENOME EDITING SYSTEM” (Pencil Biosciences Limited, priority 2021, published 2026)
